Assay results taken from the DeepSol protein solubility set.

Experiment: soluble on expression in E. coli; label from the status in PepcDB or PDB records

Row | Sequence | soluble on expression in E. coli
1 | MMEIKRVLKDRLSARVCVIGAGPSGIAAIKNLQEHGITNVTVFEKNNQIGGNWVYDEQNEHSSVYETTHIISSKRWSEFEDFPMPVDYPDYPSHSQLLKYFQSYVEHFHLDRYIRFNTVVQKVHRLDDNTWHVIYEDAQGIHEACYDYLLVANGHHWDPFMPVYPGVFDGEILHSHQYKKASIFKGKRVLVVGGGNSACDVAVEISRVAPGTCISMRRGYHIFPKFIFGKPTDVAVAKIQWMPSWLRQKFISLVIRGLQGRYAKYKLMKPDCGPLEIHPTINSELLYFIRHGKIHPRSGISRFEGNTVHFTDRTQGEFDTIIFATGYQISFPFFDKSCIDFSNSTTIPLYRKMMHPEFENLYFIGLCQPQGCIWPLADYQSKIVARIIAGTLKRPDQLHRKIAKEINKPHHRFKSHMRHALEVDYHIFRKELLEMLGQKHKRLKFYPLEHHHHHH | soluble
2 | MMFLNKVDKRKIALFQLLENAPMLTESKETVMQELELSEFIVNKTVAELNADFIEFGLSEDFQIVSDGIFLTLNESGTETSATLIDCYIKESLRFAMFQDFFFQRFDSVNEFALEHFVSHTLAYKEFKELKKMLENYQITINKEFHLVGNETNLREVTTLVFLQLYQRDFSLYGKKVLEQIRNFELFFSEKVHLNQRAGYAQAKCFHFLAVSLVRTQQQFYVEKKVDSQVLKQLAGDNQQNVFNWLESLQIPEPQRTNEGNYLLLFLIAEEWLQVASAALCQRFAEIQQLNRDLLSYLKIQFQLSEEVLQGFEQKVTIVHFKLFHFPIEANYSYLKMDITYFAETYTEYFSASRQFIQEQKTNPAVWDARRFLFYRYLLLMVDALPLKKVLAPITLCVDFSFGEAYNRMIQKNIEKITEWNIIFKAHVDESVQLILSDIHFVDWPEITQIIWLAPPRPVDWSHFIKTLSALRPHSGEEKKKSS | not soluble
3 | MMGEPARLRRLTAEEYLREEATSPVKRELVEGVPYAMAGAGRAHNLIVTNLVLLLGPLARRKGCRLYVADMKLKVGEATFYYPDLMAVCAPPPESPLYEEAPCLVVEVLSPATEGVDRREKLWRYLSLPSLEGYLLVSARERRVELYRKEGDILHQVAEEGEVPLPCLEGSLPVAEVYAGVELEGQEA | soluble
4 | MMHIAHSAPNHTVEGLYRAHNVWLTTWLRRRLGCPHSAADLAQDTFVKVLGARDTAQIIEPRAFLTTIAKRVLCNHYRRQDLERAYYQALAELPECAAPSEEERAIILETLVELDQLLDGLPALVKRAFLMSQVDGLSHGQIAAELDISIATVKRHLNKAALRCYFAL | not soluble
5 | MMICGVFCMYKERKRMTKKELALEYHKKGYNCTQAVACAFCGEFGVSEEEMYKIAEGFGLGMGMMDTCGALTGLFMLIGMKNSGGVEQAGKTKADTYKKTREYAAKFKEINGSVYCKELKGVETGKILAPCDKCILDAVELAEQFLKEN | not soluble
6 | MMIENDETLNELHNDEEFCIKEQLSHVDHDEKVHVDSIVKKSECAHNYEQREKRDRSSSVDSKPEIKKICRCHESNCSKSSKYEKSSCGSKNKSGDSLSTASTGINECLNNSKNLNEPFKFFIGGIPQYITSKDTHELNGKRVDVREENNTTPSDIQRKIFVGGLNYYWTKDTLESYFSTFGEIDVVQIVLDSSGRSRCFGFVVFSNENSVAKVLKHKRHKIYDKMVEVRKAEPKKPKMSIKRSNNKNFSKFPPHIPFMAPFPPCNKETMAQWANFMYNTCGVPFLFNQRFQNLPDFYSNYNYYQNSLENIQQSEYNN | not soluble
7 | MMIMLDPFSEKAKELLKGFGSINDFMDAIPKIVSVDDVIERIRVVKNEKLIDKFLDQDNVMDLAQFYALLGALSYSPYGIELELVKKANLIIYSERLKRKKEIKPEEISIDVSTAIEFPTEDVRKIERVYGKIPEYTMKISDFLDLVPDEKLANYYIYEGRVYLKREDLIRIWSKAFERNVERGVNMLYEIRDELPEFYRKVLGEIQAFAEEEFGRKFGEIQGGKLRPEFFPPCIKNALKGVPQGIRNYAITVLLTSFLSYARICPNPPRRNVRVKDCIKDIRVITEEILPIIIEAANRCSPPLFEDQPNEIKNIWYHLGFGYTANPSLEDSGNSTWYFPPNCEKIRANAPQLCTPDKHCKYIRNPLTYYLRRLYLEGRRNAPKRGNKRGKKELLHQLEHHHHHH | soluble
8 | MMINVHSYESMGTFDGPGLRLVVFLQGCNFRCLYCANPDTIAGKGGTPTPPEEIVRMAMSQRPFFGKRGGITFSGGEPTFQAKALVPLVRELKERGIHVCLDSNGGLWNEDVEELFKLTDLVLLDIKEFNPNRHQTLTGRSNEQTIRTAAWLEEQGKPFWLRYVLVPGYSDFEEDIRALGEALGKYKMIQRVEILPYHTLGVHKYEAMGQEYKMKGVKENTPEQLEKAAEVFKEYFTTVVVNLEHHHHHH | soluble
9 | MMKKFIAPLLALLVSGCQIDPYTHAPTLTSTDWYDVGMEDAISGSAIKDDDAFSDSQADRGLYLKGYAEGQKKTCQTDFTYARGLSGKSFPASCNNVENASQLHEVWQKGADENASTIRLN | soluble
10 | MMKTRGFELITDYTDENLLPKRETAHAAGYDLKVAERTEISAGAIVLVPTGVKAYMQVGEVLYLFDRSSNPRKKGLVLINSVGVIDGDYYNNPNNEGHIFAQMKNMTDQTVVLEAGERVVQGVFMPFLLIDGDKATGTRTGGFGSTGG | soluble
11 | MMLAGCGPIEPDYPNNKYTLTWYCTSDDGTCERVVELRRYDRASIQNNDLTIWDSQDPGGAIEALIVYSDSLPQHCDRIFYLVFFGHEIEEPRYCGNHYAFEIELSIPDEDPATSSRWVISAAPLD | not soluble
12 | MMLVRSVFRSQLRPSVSGGLQSASCYSSLSAASAEAERTIREGPRNDWSRDEIKSVYDSPLLDLLFHGAQVHRHVHNFREVQQCTLLSIKTGGCSEDCSYCPQSSRYSTGVKAQRLMSKDAVIDAAKKAKEAGSTRFCMGAAWRDTIGRKTNFSQILEYIKEIRGMGMEVCCTLGMIEKQQALELKKAGLTAYNHNLDTSREYYPNVITTRSYDDRLETLSHVRDAGINVCSGGIIGLGEAEEDRIGLLHTLATLPSHPESVPINALLAVKGTPLEDQKPVEIWEMIRMIGTARIVMPKAMVRLSAGRVRFSMSEQALCFLAGANSIFTGEKLLTTPNNDFDADQLMFKTLGLIPKPPSFSEDDSESENCEKVASASH | not soluble
13 | MMNNMDSIINYIYEGDYFIVTSHISPDGDNIGSTLSMYYTLKNLGKNVYYVLDDEAPLNLRFLVEGVKIYKSNEFNMKNYSLIALDCGDKMRICVSDEIKNNASKLICIDHHASNDSYGDLNYVDIDASSTCELVYNLLVRFQQIKDINIINEDIATCLYTGLVTDTGNFSYSNVHASSFEMAKNLLVLGAQKNTIIQNIYQSNSSGYYKLLGEALKGLEIFDSKVSSIVLTQDMMNRNNISFNDVDGITTYTRDIKGIEVGILFKEKKQNEIKVSFRSKNYVDVSEIAKLFGGGGHVRAAGCTIRDSIDNAKKMVLEAVLKSI | not soluble
14 | MMNQDIEKVLISEEQIQEKVLELGAIIAEDYKNTVPLAIGVLKGAMPFMADLLKRTDTYLEMDFMAVSSYGHSTVSTGEVKILKDLDTSVEGRDILIVEDIIDSGLTLSYLVDLFKYRKAKSVKIVTLLDKPTGRKVDLKADYVGFTVPHEFVVGYGLDYKEQYRNLPYVGVLKPSVYSN | not soluble
15 | MMTQTLLIELLTEELPPKALNNLGNHFAASVAEGLEKAQLVDGAAEFTAYASPRRLAVQVKNVKAVQADQKIVKKGPAVANAMKDGAPTKALEGFARGAGAKIEDLTIVHDGKQDVYAYEYVQIGKPLGGLLEDIINQAVKKLPIPKVMRWGSSTFTFVRPVHGLVVLHGGDIVNVSVLGLQSGNKTLGHRFLSDGEITIENADSYAAQMREQGKVVASFAERKAAIQTVLEGQARRLNATAAADEALLDEVTALVEWPVVLEAGFEEHFLAVPQECLILTMQQNQKYFPLLDQNGKLMNRFLLVSNLQTEDPSHIIQGNERVLRARLSDAEFFYKQDQKATLESRLPKLTNVVYHNKIGSQAERIERLQSIAAHIAKALGADAAAAERAARLAKADLVTEMVGEFPELQGTMGKYYARLDGETEEITEAVEQHYQPRFAGDNLPEGKIAAAVALADKLETLVGIWGIGLIPTGDKDPYALRRAALGILRMLMQYGLDVNELIQTAFNSFPQGLLNEKTPSETADFMQARLAVLLQNDYPQDIVAAVLAKQPRRLDDLTAKLQAVAAFKQLPEAAALAAANKRVQNLLKKADAELGAVNESLLQQDEEKALFAAAQGLQPKIAAAVAEGNFQTALSELASVKPQVDAFFDGVMVMAEDAAVKQNRLNLLNRLAEQMNAVADIALLGE | not soluble
